In the supplement of paper PMC10724198:
± gives the standard deviation of the averaged measurements.

System: Saccharomyces cerevisiae
Experiment: protein stability index of tFT-peptide fusion (C-terminal peptide) (PSI (0-1 scale)); higher = more stable (slower turnover)
Settings: genetic background: wild type; temperature: 30 C
Protocol: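 Multiplexed protein stability (MPS) profiling in S. cerevisiae. Random 12-aa peptides (tFT-X12 library) are fused to the C-terminus of a sfGFP-mCherry tandem fluorescent timer, after mCherry and a GGGS linker. Cells are FACS-sorted into 8 mCherry/sfGFP bins and deep-sequenced. The protein stability index (PSI) is the read-weighted bin average, scaled from 0 (unstable) to 1 (stable). Only peptides with >10 reads are reported; cells were grown at 30 °C in SC-His with glucose.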
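Also: PSI is a weighted mean of sequencing reads over stability bins, variants kept only with over 10 reads, mCherry proximal and sfGFP distal, peptide attached via GGGS linker.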

Row | Sequence | protein stability index
1 | WGDDRIRVCVRG | 0.611 ± 0.035
2 | LPYHSSPPSSSP | 0.702 ± 0.046
3 | RINKRKKKKDKG | 0.6136 ± 0.00074
4 | FSPVSAPPTRVS | 0.703 ± 0.042
5 | CVLARVWMRGGR | 0.636 ± 0.023
6 | QHFAKAIVQTTT | 0.679 ± 0.02
7 | VLLFALSPHPPS | 0.724 ± 0.024
8 | FFTDACQRVMKG | 0.633 ± 0.049
9 | LLLPPAPPPPLS | 0.621 ± 0.095
10 | GGRGGEVVLWQA | 0.726 ± 0.12
11 | GFRVSVGVVEGG | 0.6716 ± 0.0056
12 | QRPFKCMIKFNK | 0.67 ± 0.0078
13 | NPPALPPFSPSP | 0.708 ± 0.01
14 | PSVPSPPPPSPP | 0.683 ± 0.024
15 | CASGKVCVRFCW | 0.683 ± 0.033
16 | QQKKPKKEKTTE | 0.6744 ± 0.0036
17 | YILSSFWTEVDS | 0.703 ± 0.093
18 | RAKNRFKRQGEN | 0.667 ± 0.023
19 | LIALLETRTWRT | 0.676 ± 0.015
20 | GLKKRTIILSVK | 0.532 ± 0.0056
21 | PFFRASFSGLID | 0.681 ± 0.061
22 | SSYHPPPSCLLP | 0.74596 ± 0.00061
23 | GRGVFPRRPYWV | 0.724 ± 0.0086
24 | MRLTLGSHMAYY | 0.69 ± 0.082
25 | GVVSRGGRRLGV | 0.7011 ± 0.0035

Row | Sequence | protein stability index
26 | RENGKIIKKRKK | 0.694 ± 0.026
27 | TPLSDQLVPFGC | 0.708 ± 0.082
28 | SSPPPRSLPSPP | 0.714 ± 0.046
29 | EHLQTHYLWSTG | 0.701 ± 0.062
30 | GFGFLQIVSGWL | 0.608 ± 0.067
31 | VGMGAWVQQIVL | 0.666 ± 0.043
32 | PPPTSPPHPPSP | 0.701 ± 0.083
33 | WRGQRGRIAGPR | 0.6694 ± 0.0062
34 | TELCPPDTPTGD | 0.6921 ± 0.0016
35 | PGSLVLSVVDLV | 0.683 ± 0.056
36 | LGGGEGKRVCEG | 0.668 ± 0.017
37 | TLGGRPFQGTPA | 0.698 ± 0.016
38 | GGGGKGTSGQGR | 0.688 ± 0.017
39 | NNSLKTTMVATK | 0.58 ± 0.065
40 | YGWGVWFIGLGG | 0.794 ± 0.095
41 | PPLPPPPPRPPP | 0.611 ± 0.086
42 | IRNSDNNKNHPR | 0.693 ± 0.042
43 | NRGLYNLYRMSR | 0.645 ± 0.0027
44 | CLPPSSIVPFIS | 0.59 ± 0.024
45 | PTLWRSSVRHVW | 0.714 ± 0.066
46 | PLPRLTRPSPPR | 0.681 ± 0.067
47 | PPTLRRGSTFYH | 0.6788 ± 0.0016
48 | GACPARGRFLRR | 0.753 ± 0.086
49 | SSFLSLYSIPLP | 0.734 ± 0.044
50 | PPRPPPFPPLLP | 0.679 ± 0.058

Row | Sequence | protein stability index
51 | RSMSQKSRIVSF | 0.67 ± 0.14
52 | SKYKITIYWREE | 0.568 ± 0.0096
53 | LEIRKKGNKIRE | 0.6 ± 0.041
54 | LSSPPSPRAFLP | 0.723 ± 0.065
55 | SKRRLTGYRKTK | 0.669 ± 0.052
56 | AGCRRGLGMETQ | 0.648 ± 0.012
57 | YPRNPSLSTSAS | 0.63 ± 0.16
58 | PPTASPPPLSPL | 0.691 ± 0.083
59 | STSIRHGLHSVE | 0.673 ± 0.05
60 | NFNRKTNGVFRS | 0.693 ± 0.059
61 | ALVPESDLGLNF | 0.714 ± 0.026
62 | LWGPGAVWGRGR | 0.699 ± 0.049
63 | GRTSTVRSLVFT | 0.666 ± 0.026
64 | SQPRRELGRPRG | 0.662 ± 0.022
65 | SRVKMKGTIRER | 0.701 ± 0.021
66 | VRGGLVGRSVGC | 0.559 ± 0.08
67 | PPRAPFVSPFGY | 0.723 ± 0.012
68 | CFLVLFAHPFVL | 0.555 ± 0.007
69 | IKNEKKKEIELN | 0.639 ± 0.0065
70 | CKPAGEGPTASM | 0.678 ± 0.037
71 | VPPPSPTLSPHP | 0.656 ± 0.28
72 | TETFARTATRRP | 0.587 ± 0.022
73 | VRQLRGPWMEYP | 0.682 ± 0.076
74 | PPPRPPPRPLPP | 0.669 ± 0.024
75 | LPLPPPCSRVLF | 0.644 ± 0.074

Row | Sequence | protein stability index
76 | PNCTLVDSCWSI | 0.699 ± 0.022
77 | RPSPSLPSPSPP | 0.843 ± 0.081
78 | LKNIRYGIIKKE | 0.68 ± 0.0085
79 | YTQVSSRGINID | 0.734 ± 0.029
80 | GVWPWWGWSCCF | 0.782 ± 0.1
81 | DRSRESSMSLPD | 0.711 ± 0.0076
82 | DGSLTMTRTGFR | 0.704 ± 0.021
83 | VSRYRQWGSWER | 0.649 ± 0.013
84 | FSHPCPLSGLYP | 0.716 ± 0.015
85 | IQSRGQEKKKRK | 0.673 ± 0.0075
86 | HRQTAKLKRIVI | 0.651 ± 0.093
87 | VTECLRQWERLG | 0.545 ± 0.045
88 | CRMEARHSVLKS | 0.554 ± 0.0087
89 | ITRAKGKPEISL | 0.639 ± 0.12
90 | SPLPHRLFPFWS | 0.79 ± 0.015
91 | GGVLGPEVCVGG | 0.693 ± 0.047
92 | SQTKRINSEKNN | 0.654 ± 0.039
93 | GKKKKRIDTKYK | 0.713 ± 0.15
94 | VRIRRNGAVSFM | 0.6829 ± 0.0038
95 | TVAVCPKIDYSV | 0.667 ± 0.0085
96 | LPPFPLPPPLLS | 0.68 ± 0.1
97 | GLGATSGGLRCG | 0.654 ± 0.014
98 | WFHPAPLCGPQS | 0.662 ± 0.063
99 | SLSPLLVILANL | 0.613 ± 0.05
100 | DSTTGALILLPV | 0.692 ± 0.021

Row | Sequence | protein stability index
101 | RPLLPYHPTRFD | 0.721 ± 0.048
102 | GGGEWGLGVRPR | 0.725 ± 0.008
103 | VVCLGGGVLPRV | 0.654 ± 0.081
104 | GAFCGGSSVFYL | 0.659 ± 0.01
105 | PLSLAPPPLPPY | 0.671 ± 0.061
106 | PLLLLLPALPPL | 0.679 ± 0.026
107 | LGEHHKEQEKNV | 0.654 ± 0.023
108 | VTCADEYYHSRR | 0.686 ± 0.03
109 | KKNNTKKNRKRK | 0.7 ± 0.051
110 | GGGWCSGYLAGV | 0.679 ± 0.056
111 | RFGSGKCLALRG | 0.689 ± 0.066
112 | SRFRSGVAALPS | 0.644 ± 0.033
113 | LDGGYGRHGVGD | 0.6765 ± 0.00099
114 | VGVQLLLSAWEK | 0.715 ± 0.066
115 | GATGGAWGVWAG | 0.676 ± 0.019
116 | QARHNMVYHEIV | 0.656 ± 0.029
117 | PPPPLPLPPSLP | 0.5979 ± 0.0054
118 | ALCHASSLHLQS | 0.724 ± 0.059
119 | FSVFSCLVCSLD | 0.575 ± 0.011
120 | GFKEGRSYWRFY | 0.74 ± 0.034
121 | VFPLWLRRPFPF | 0.695 ± 0.041
122 | TYACRQEWRESR | 0.731 ± 0.041
123 | YRDTVYKVRYSN | 0.537 ± 0.015
124 | RNKKKAKKEENR | 0.664 ± 0.048
125 | SSPIIAGFPQQK | 0.676 ± 0.016

Row | Sequence | protein stability index
126 | SGRDWYHSLGGA | 0.742 ± 0.052
127 | PQCSLPLPFTLL | 0.61363 ± 0.00047
128 | GASGVYMLDAYA | 0.632 ± 0.058
129 | RKDEKEMVRKTK | 0.682 ± 0.061
130 | GRTAEKGHPPRG | 0.7 ± 0.073
131 | GGWGGRGQGWYR | 0.6673 ± 0.0055
132 | WGGGRGLRVVGG | 0.733 ± 0.092
133 | LLSLLPFGCLLL | 0.536 ± 0.031
134 | GFLPVQGQGLVD | 0.688 ± 0.045
135 | KLPPATPNSRPP | 0.714 ± 0.2
136 | TPPALPPPSPPA | 0.68516 ± 0.00038
137 | CVRARQLTLCIP | 0.5505 ± 0.0036
138 | PAPPAPTHAPPL | 0.683 ± 0.11
139 | PLECHTGVLGRL | 0.709 ± 0.0086
140 | AGGWLRGGLGVG | 0.7 ± 0.053
141 | RKHIANPTDQND | 0.673 ± 0.019
142 | PPLIPPSCSPLH | 0.6864 ± 0.0027
143 | PPPPRPSSDRFR | 0.684 ± 0.016
144 | SFRFVLVQCSGV | 0.5601 ± 0.0046
145 | EWGEEDRDGNGR | 0.721 ± 0.053
146 | KNKKKNSRKKQQ | 0.702 ± 0.0083
